Laboratory results from IntAct's records for PubMed 19805317.

B1: Voltage-dependent calcium channel gamma-2 subunit (Homo sapiens), Q9Y698 (parent)
chain: MGLFDRGVQMLLTTVGAFAAFSLMTIAVGTDYWLYSRGVCKTKSVSENETSKKNEEVMTHSGLWRTCCLEGNFKGLCKQIDHFPEDADYEADTAEYFLRAVRASSIFPILSVILLFMGGLCIAASEFYKTRHNIILSAGIFFVSAGLSNIIGIIVYISANAGDPSKSDSKKNSYSYGWSFYFGALSFIIAEMVGVLAVHMFIDRHKQLRATARATDYLQASAITRIPSYRYRYQRRSRSSSRSTEPSHSRDASPVGIKGFNTLPSTEISMYTLSRDPLKAATTPTATYNSDRDNSFLQVHNCIQKENKDSLHSNTANRRTTPV

Variants of: B1
Settings: with gria1_rat Gria1, P19490
gria1_rat Gria1, P19490, sequence (P19490 whole entry): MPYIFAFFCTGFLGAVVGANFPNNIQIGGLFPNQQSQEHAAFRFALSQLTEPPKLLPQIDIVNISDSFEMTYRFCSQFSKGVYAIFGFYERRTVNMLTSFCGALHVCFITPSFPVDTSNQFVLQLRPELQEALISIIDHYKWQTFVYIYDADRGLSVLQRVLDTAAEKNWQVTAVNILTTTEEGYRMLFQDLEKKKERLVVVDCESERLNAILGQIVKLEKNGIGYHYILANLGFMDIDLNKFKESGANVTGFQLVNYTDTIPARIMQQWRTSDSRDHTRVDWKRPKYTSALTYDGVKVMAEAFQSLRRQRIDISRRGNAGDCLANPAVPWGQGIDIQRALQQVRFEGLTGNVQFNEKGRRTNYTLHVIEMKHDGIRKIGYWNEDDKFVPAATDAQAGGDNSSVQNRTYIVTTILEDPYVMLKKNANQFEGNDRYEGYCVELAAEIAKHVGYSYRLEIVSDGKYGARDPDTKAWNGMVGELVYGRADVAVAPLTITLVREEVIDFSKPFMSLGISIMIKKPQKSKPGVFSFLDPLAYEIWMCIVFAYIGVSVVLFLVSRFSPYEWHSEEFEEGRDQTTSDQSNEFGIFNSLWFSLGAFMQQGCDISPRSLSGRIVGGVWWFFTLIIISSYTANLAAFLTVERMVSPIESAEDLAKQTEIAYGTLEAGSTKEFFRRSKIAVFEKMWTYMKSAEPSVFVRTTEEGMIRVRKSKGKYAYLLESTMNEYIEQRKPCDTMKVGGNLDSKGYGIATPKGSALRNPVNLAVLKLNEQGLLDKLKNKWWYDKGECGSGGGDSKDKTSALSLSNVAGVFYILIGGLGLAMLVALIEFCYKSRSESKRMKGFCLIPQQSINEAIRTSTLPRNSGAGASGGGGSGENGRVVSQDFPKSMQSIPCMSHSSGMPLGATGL

effect of a mutation on the interaction	Variant
decreasing interaction	C302S
